Laboratory results as given in patent US20200121803A1 (published 2020).

T1: human CD98, endogenously expressed on Molt-4 human acute lymphoblastic leukemia cells (human)
T1 chain: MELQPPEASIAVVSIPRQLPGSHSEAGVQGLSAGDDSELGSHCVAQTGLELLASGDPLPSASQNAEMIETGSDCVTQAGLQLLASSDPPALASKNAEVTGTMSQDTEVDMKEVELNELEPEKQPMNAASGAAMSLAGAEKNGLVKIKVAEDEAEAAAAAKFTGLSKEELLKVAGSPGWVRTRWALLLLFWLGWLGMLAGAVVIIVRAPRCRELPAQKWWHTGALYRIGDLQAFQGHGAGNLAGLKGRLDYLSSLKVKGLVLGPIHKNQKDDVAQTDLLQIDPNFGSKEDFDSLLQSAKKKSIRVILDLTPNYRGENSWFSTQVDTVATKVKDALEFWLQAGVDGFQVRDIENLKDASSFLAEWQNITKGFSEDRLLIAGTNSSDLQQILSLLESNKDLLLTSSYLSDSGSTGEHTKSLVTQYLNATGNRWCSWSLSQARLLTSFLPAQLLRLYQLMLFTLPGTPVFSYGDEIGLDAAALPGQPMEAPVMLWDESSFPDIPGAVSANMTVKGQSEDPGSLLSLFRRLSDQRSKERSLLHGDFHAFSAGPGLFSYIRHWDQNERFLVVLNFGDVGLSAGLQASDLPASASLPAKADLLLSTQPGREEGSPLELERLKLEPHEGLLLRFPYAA


Target: T1, human CD98, endogenously expressed on …
Test: cell-based or functional assay

Binder | Molt4 IC50 | % Cell Viability at 50 nM
CD98 (CL-huAb102)-TX (antibody, human IgG1, kappa, L234A L235A, V domains shown, synthon TX on reduced interchain cysteines (sites not given)) VH: EVQLVESGGGLVQPGGSLRLSCATSGFTFIDYYMSWVRQAPGKGLEWLGFIRNKANRYTTEYSASVKGRFTISRDNSKSILYLQMNSLKTEDTAVYYCTRDRPAWFVYWGQGTLVTVSS VL: DIVMTQTPLSLPVTPGEPASISCKSSQSLLYSSNQKNYLAWYLQKPGQSPQLLIYWASTRESGVPDRFSGSGSGTDFTLKISRVEAEDVGVYYCQQYYSYPYTFGGGTKVEIKR | 0.05 nM | 2.8%
CD98 (CL-huAb104)-TX (antibody, human IgG1, kappa, L234A L235A, V domains shown, synthon TX on reduced interchain cysteines (sites not given)) VH: EVQLVESGGGLVQPGGSLRLSCATSGFTFIDYYMSWVRQAPGKGLEWLGFIRNKAYGYTTEYSASVKGRFTISRDNSKSILYLQMNSLKTEDTAVYYCTRDRPAWFVYWGQGTLVTVSS VL: DIVMTQTPLSLPVTPGEPASISCKSSQSLLYSSNQKNYLAWYLQKPGQSPQLLIYWASTRESGVPDRFSGSGSGTDFTLKISRVEAEDVGVYYCQQYYSYPYTFGGGTKVEIKR | 0.06 nM | 4.3%
CD98 (CL-huAb102)-TV (antibody, human IgG1, kappa, L234A L235A, V domains shown, synthon TV on reduced interchain cysteines (sites not given)) VH: EVQLVESGGGLVQPGGSLRLSCATSGFTFIDYYMSWVRQAPGKGLEWLGFIRNKANRYTTEYSASVKGRFTISRDNSKSILYLQMNSLKTEDTAVYYCTRDRPAWFVYWGQGTLVTVSS VL: DIVMTQTPLSLPVTPGEPASISCKSSQSLLYSSNQKNYLAWYLQKPGQSPQLLIYWASTRESGVPDRFSGSGSGTDFTLKISRVEAEDVGVYYCQQYYSYPYTFGGGTKVEIKR | 0.02 nM | 1.5%
CD98 (CL-huAb104)-TV (antibody, human IgG1, kappa, L234A L235A, V domains shown, synthon TV on reduced interchain cysteines (sites not given)) VH: EVQLVESGGGLVQPGGSLRLSCATSGFTFIDYYMSWVRQAPGKGLEWLGFIRNKAYGYTTEYSASVKGRFTISRDNSKSILYLQMNSLKTEDTAVYYCTRDRPAWFVYWGQGTLVTVSS VL: DIVMTQTPLSLPVTPGEPASISCKSSQSLLYSSNQKNYLAWYLQKPGQSPQLLIYWASTRESGVPDRFSGSGSGTDFTLKISRVEAEDVGVYYCQQYYSYPYTFGGGTKVEIKR | 0.03 nM | 1.4%
CD98 (CL-huAb102)-YY (antibody, human IgG1, kappa, L234A L235A, V domains shown, synthon YY on reduced interchain cysteines (sites not given)) VH: EVQLVESGGGLVQPGGSLRLSCATSGFTFIDYYMSWVRQAPGKGLEWLGFIRNKANRYTTEYSASVKGRFTISRDNSKSILYLQMNSLKTEDTAVYYCTRDRPAWFVYWGQGTLVTVSS VL: DIVMTQTPLSLPVTPGEPASISCKSSQSLLYSSNQKNYLAWYLQKPGQSPQLLIYWASTRESGVPDRFSGSGSGTDFTLKISRVEAEDVGVYYCQQYYSYPYTFGGGTKVEIKR | 0.05 nM | 3.1%
CD98 (CL-huAb104)-YY (antibody, human IgG1, kappa, L234A L235A, V domains shown, synthon YY on reduced interchain cysteines (sites not given)) VH: EVQLVESGGGLVQPGGSLRLSCATSGFTFIDYYMSWVRQAPGKGLEWLGFIRNKAYGYTTEYSASVKGRFTISRDNSKSILYLQMNSLKTEDTAVYYCTRDRPAWFVYWGQGTLVTVSS VL: DIVMTQTPLSLPVTPGEPASISCKSSQSLLYSSNQKNYLAWYLQKPGQSPQLLIYWASTRESGVPDRFSGSGSGTDFTLKISRVEAEDVGVYYCQQYYSYPYTFGGGTKVEIKR | 0.03 nM | 2.7%
CD98 (CL-huAb102)-AAA (antibody, human IgG1, kappa, L234A L235A, V domains shown, synthon AAA on reduced interchain cysteines (sites not given)) VH: EVQLVESGGGLVQPGGSLRLSCATSGFTFIDYYMSWVRQAPGKGLEWLGFIRNKANRYTTEYSASVKGRFTISRDNSKSILYLQMNSLKTEDTAVYYCTRDRPAWFVYWGQGTLVTVSS VL: DIVMTQTPLSLPVTPGEPASISCKSSQSLLYSSNQKNYLAWYLQKPGQSPQLLIYWASTRESGVPDRFSGSGSGTDFTLKISRVEAEDVGVYYCQQYYSYPYTFGGGTKVEIKR | 0.05 nM | 2.4%
CD98 (CL-huAb104)-AAA (antibody, human IgG1, kappa, L234A L235A, V domains shown, synthon AAA on reduced interchain cysteines (sites not given)) VH: EVQLVESGGGLVQPGGSLRLSCATSGFTFIDYYMSWVRQAPGKGLEWLGFIRNKAYGYTTEYSASVKGRFTISRDNSKSILYLQMNSLKTEDTAVYYCTRDRPAWFVYWGQGTLVTVSS VL: DIVMTQTPLSLPVTPGEPASISCKSSQSLLYSSNQKNYLAWYLQKPGQSPQLLIYWASTRESGVPDRFSGSGSGTDFTLKISRVEAEDVGVYYCQQYYSYPYTFGGGTKVEIKR | 0.04 nM | 2.2%
CD98 (CL-huAb102)-AAD (antibody, human IgG1, kappa, L234A L235A, V domains shown, synthon AAD on reduced interchain cysteines (sites not given)) VH: EVQLVESGGGLVQPGGSLRLSCATSGFTFIDYYMSWVRQAPGKGLEWLGFIRNKANRYTTEYSASVKGRFTISRDNSKSILYLQMNSLKTEDTAVYYCTRDRPAWFVYWGQGTLVTVSS VL: DIVMTQTPLSLPVTPGEPASISCKSSQSLLYSSNQKNYLAWYLQKPGQSPQLLIYWASTRESGVPDRFSGSGSGTDFTLKISRVEAEDVGVYYCQQYYSYPYTFGGGTKVEIKR | 0.024 nM | 2.2%

Second part, led by results:

Molt4 IC50 | Binder | % Cell Viability at 50 nM
0.064 nM | CD98 (CL-huAb110)-CZ (antibody, human IgG1, kappa, L234A L235A, V domains shown, synthon CZ on reduced interchain cysteines (sites not given)) VH: EVQLVQSGAEVKKPGASVKVSCKASGFTFSDYTMAWVRQAPGQGLEWVATIIYDARGTYYRDAVKGRFTITRDNSTSTLYLELSSLRSEDTAVYYCARQSDDTYYYWGYFDYWGQGTMVTVSS VL: DIVMTQTPLSLPVTPGEPASINCKSSQSLLFSGNQKNYLAWYLQKPGQSPQLLIYWASTRQSGVPDRFSGSGSGTDFTLKISRVEAEDVGIYYCQQYYSSPYTFGQGTKLEIKR | 0.8%
0.15 nM | CD98 (CL-huAb108)-TX (antibody, human IgG1, kappa, L234A L235A, V domains shown, synthon TX on reduced interchain cysteines (sites not given)) VH: EVQLVQSGAEVKKPGASVKVSCKASGFTFSDYTMAWVRQAPGQGLEWVATIIYSGRGTYYRDAVKGRFTITRDNSTSTLYLELSSLRSEDTAVYYCARQSDDTYYYWGYFDYWGQGTMVTVSS VL: DIVMTQTPLSLPVTPGEPASINCKSSQSLLFSGNQKNYLAWYLQKPGQSPQLLIYWASTRQSGVPDRFSGSGSGTDFTLKISRVEAEDVGIYYCQQYYDVPYTFGQGTKLEIKR | 3%
0.14 nM | CD98 (CL-huAb110)-TX (antibody, human IgG1, kappa, L234A L235A, V domains shown, synthon TX on reduced interchain cysteines (sites not given)) VH: EVQLVQSGAEVKKPGASVKVSCKASGFTFSDYTMAWVRQAPGQGLEWVATIIYDARGTYYRDAVKGRFTITRDNSTSTLYLELSSLRSEDTAVYYCARQSDDTYYYWGYFDYWGQGTMVTVSS VL: DIVMTQTPLSLPVTPGEPASINCKSSQSLLFSGNQKNYLAWYLQKPGQSPQLLIYWASTRQSGVPDRFSGSGSGTDFTLKISRVEAEDVGIYYCQQYYSSPYTFGQGTKLEIKR | 2.5%
0.08 nM | CD98 (CL-huAb108)-TV (antibody, human IgG1, kappa, L234A L235A, V domains shown, synthon TV on reduced interchain cysteines (sites not given)) VH: EVQLVQSGAEVKKPGASVKVSCKASGFTFSDYTMAWVRQAPGQGLEWVATIIYSGRGTYYRDAVKGRFTITRDNSTSTLYLELSSLRSEDTAVYYCARQSDDTYYYWGYFDYWGQGTMVTVSS VL: DIVMTQTPLSLPVTPGEPASINCKSSQSLLFSGNQKNYLAWYLQKPGQSPQLLIYWASTRQSGVPDRFSGSGSGTDFTLKISRVEAEDVGIYYCQQYYDVPYTFGQGTKLEIKR | 1.1%
0.09 nM | CD98 (CL-huAb110)-TV (antibody, human IgG1, kappa, L234A L235A, V domains shown, synthon TV on reduced interchain cysteines (sites not given)) VH: EVQLVQSGAEVKKPGASVKVSCKASGFTFSDYTMAWVRQAPGQGLEWVATIIYDARGTYYRDAVKGRFTITRDNSTSTLYLELSSLRSEDTAVYYCARQSDDTYYYWGYFDYWGQGTMVTVSS VL: DIVMTQTPLSLPVTPGEPASINCKSSQSLLFSGNQKNYLAWYLQKPGQSPQLLIYWASTRQSGVPDRFSGSGSGTDFTLKISRVEAEDVGIYYCQQYYSSPYTFGQGTKLEIKR | 1%
0.14 nM | CD98 (CL-huAb108)-YY (antibody, human IgG1, kappa, L234A L235A, V domains shown, synthon YY on reduced interchain cysteines (sites not given)) VH: EVQLVQSGAEVKKPGASVKVSCKASGFTFSDYTMAWVRQAPGQGLEWVATIIYSGRGTYYRDAVKGRFTITRDNSTSTLYLELSSLRSEDTAVYYCARQSDDTYYYWGYFDYWGQGTMVTVSS VL: DIVMTQTPLSLPVTPGEPASINCKSSQSLLFSGNQKNYLAWYLQKPGQSPQLLIYWASTRQSGVPDRFSGSGSGTDFTLKISRVEAEDVGIYYCQQYYDVPYTFGQGTKLEIKR | 2.9%
0.13 nM | CD98 (CL-huAb110)-YY (antibody, human IgG1, kappa, L234A L235A, V domains shown, synthon YY on reduced interchain cysteines (sites not given)) VH: EVQLVQSGAEVKKPGASVKVSCKASGFTFSDYTMAWVRQAPGQGLEWVATIIYDARGTYYRDAVKGRFTITRDNSTSTLYLELSSLRSEDTAVYYCARQSDDTYYYWGYFDYWGQGTMVTVSS VL: DIVMTQTPLSLPVTPGEPASINCKSSQSLLFSGNQKNYLAWYLQKPGQSPQLLIYWASTRQSGVPDRFSGSGSGTDFTLKISRVEAEDVGIYYCQQYYSSPYTFGQGTKLEIKR | 1.9%
0.18 nM | CD98 (CL-huAb108)-AAA (antibody, human IgG1, kappa, L234A L235A, V domains shown, synthon AAA on reduced interchain cysteines (sites not given)) VH: EVQLVQSGAEVKKPGASVKVSCKASGFTFSDYTMAWVRQAPGQGLEWVATIIYSGRGTYYRDAVKGRFTITRDNSTSTLYLELSSLRSEDTAVYYCARQSDDTYYYWGYFDYWGQGTMVTVSS VL: DIVMTQTPLSLPVTPGEPASINCKSSQSLLFSGNQKNYLAWYLQKPGQSPQLLIYWASTRQSGVPDRFSGSGSGTDFTLKISRVEAEDVGIYYCQQYYDVPYTFGQGTKLEIKR | 2.9%
0.16 nM | CD98 (CL-huAb110)-AAA (antibody, human IgG1, kappa, L234A L235A, V domains shown, synthon AAA on reduced interchain cysteines (sites not given)) VH: EVQLVQSGAEVKKPGASVKVSCKASGFTFSDYTMAWVRQAPGQGLEWVATIIYDARGTYYRDAVKGRFTITRDNSTSTLYLELSSLRSEDTAVYYCARQSDDTYYYWGYFDYWGQGTMVTVSS VL: DIVMTQTPLSLPVTPGEPASINCKSSQSLLFSGNQKNYLAWYLQKPGQSPQLLIYWASTRQSGVPDRFSGSGSGTDFTLKISRVEAEDVGIYYCQQYYSSPYTFGQGTKLEIKR | 1.9%
